± gives the standard deviation of the averaged measurements.
B1: library; a variant is named by its letters at N, in order (parent)
chain: GCUGUCACCGAGAAACUGUGAAGUAUAUCUUAAACCUGGGCACUUAAAAGAUAUAUGGAGUUAGUAGUGCAACCUGCUCGGUCUGAUGAGUCCNNNNNNGGACGAAACAGC

Columns and labels:
cyclic di-GMP [1] = variants of: B1; assay: normalized RNA/DNA level without ligand (relative to sTRSVctl = 100) (log10 (% of sTRSVctl)); HEK293T; ligand: cyclic di-GMP (c-di-GMP-II aptamer); higher = less ribozyme self-cleavage, higher mRNA level; conditions: reporter: mCherry (pCS4076), ligand present: no
How it was run: (§1)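 For each 6-well well, 4 µg of library plasmid encoding mCherry-linked ribozyme switches, or eGFP-linked ones in some ligand experiments, was transfected into HEK293T. Any ligand was added 1 h before transfection, and RNA was extracted with EDTA 72 h after it, then reverse-transcribed, amplified, barcoded and sequenced. RNA level was obtained by dividing RNA reads by DNA reads, normalizing to a spiked-in non-cleaving sequence or to the top sequences, then scaling and log-transforming. The top set was 25 sequences, scaling was ×100 with log10, and ≥100 DNA reads were required.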

cyclic di-GMP [2] = variants of: B1; assay: normalized RNA/DNA level with ligand (relative to sTRSVctl = 100) (log10 (% of sTRSVctl)); HEK293T; ligand: cyclic di-GMP (c-di-GMP-II aptamer); ligand concentration (+) RNA-Seq: 1 mM; higher = less ribozyme self-cleavage, higher mRNA level; conditions: reporter: mCherry (pCS4076), ligand present: yes
How it was run: as §1

Variant | normalized RNA/DNA level without ligand (log10) (cyclic di-GMP [1]) | normalized RNA/DNA level with ligand (log10) (cyclic di-GMP [2])
GCUGUCACCGAGAAACUGUGAAGUAUAUCUUAAACCUGGGCACUUAAAAGAUAUAUGGAGUUAGUAGUGCAACCUGCUCGGUCUGAUGAGUCCGUCCCAGGACGAAACAGC [GUCCCA] | 1.772 ± 0.0084 | 1.87 ± 0.075
GCUGUCACCGAGAAACUGUGAAGUAUAUCUUAAACCUGGGCACUUAAAAGAUAUAUGGAGUUAGUAGUGCAACCUGCUCGGUCUGAUGAGUCCUGAUCAGGACGAAACAGC [UGAUCA] | 1.76 ± 0.073 | 1.88 ± 0.11
GCUGUCACCGAGAAACUGUGAAGUAUAUCUUAAACCUGGGCACUUAAAAGAUAUAUGGAGUUAGUAGUGCAACCUGCUCGGUCUGAUGAGUCCUUUGGGGGACGAAACAGC [UUUGGG] | 1.735 ± 0.0076 | 1.85 ± 0.074
GCUGUCACCGAGAAACUGUGAAGUAUAUCUUAAACCUGGGCACUUAAAAGAUAUAUGGAGUUAGUAGUGCAACCUGCUCGGUCUGAUGAGUCCAGUUGUGGACGAAACAGC [AGUUGU] | 1.66 ± 0.048 | 1.85 ± 0.11
GCUGUCACCGAGAAACUGUGAAGUAUAUCUUAAACCUGGGCACUUAAAAGAUAUAUGGAGUUAGUAGUGCAACCUGCUCGGUCUGAUGAGUCCCAUCAGGGACGAAACAGC [CAUCAG] | 1.69 ± 0.044 | 1.76 ± 0.13
GCUGUCACCGAGAAACUGUGAAGUAUAUCUUAAACCUGGGCACUUAAAAGAUAUAUGGAGUUAGUAGUGCAACCUGCUCGGUCUGAUGAGUCCUUGGGUGGACGAAACAGC [UUGGGU] | 1.68 ± 0.024 | 1.84 ± 0.088
GCUGUCACCGAGAAACUGUGAAGUAUAUCUUAAACCUGGGCACUUAAAAGAUAUAUGGAGUUAGUAGUGCAACCUGCUCGGUCUGAUGAGUCCAUUACAGGACGAAACAGC [AUUACA] | 1.63 ± 0.027 | 1.79 ± 0.071
GCUGUCACCGAGAAACUGUGAAGUAUAUCUUAAACCUGGGCACUUAAAAGAUAUAUGGAGUUAGUAGUGCAACCUGCUCGGUCUGAUGAGUCCUCGCGUGGACGAAACAGC [UCGCGU] | 1.66 ± 0.083 | 1.84 ± 0.089
GCUGUCACCGAGAAACUGUGAAGUAUAUCUUAAACCUGGGCACUUAAAAGAUAUAUGGAGUUAGUAGUGCAACCUGCUCGGUCUGAUGAGUCCACCUAGGGACGAAACAGC [ACCUAG] | 1.64 ± 0.053 | 1.78 ± 0.086
GCUGUCACCGAGAAACUGUGAAGUAUAUCUUAAACCUGGGCACUUAAAAGAUAUAUGGAGUUAGUAGUGCAACCUGCUCGGUCUGAUGAGUCCGACCUCGGACGAAACAGC [GACCUC] | 1.72 ± 0.047 | 1.86 ± 0.12
GCUGUCACCGAGAAACUGUGAAGUAUAUCUUAAACCUGGGCACUUAAAAGAUAUAUGGAGUUAGUAGUGCAACCUGCUCGGUCUGAUGAGUCCCCCUUUGGACGAAACAGC [CCCUUU] | 1.61 ± 0.053 | 1.83 ± 0.096
GCUGUCACCGAGAAACUGUGAAGUAUAUCUUAAACCUGGGCACUUAAAAGAUAUAUGGAGUUAGUAGUGCAACCUGCUCGGUCUGAUGAGUCCAUGCAUGGACGAAACAGC [AUGCAU] | 1.62 ± 0.045 | 1.76 ± 0.12
GCUGUCACCGAGAAACUGUGAAGUAUAUCUUAAACCUGGGCACUUAAAAGAUAUAUGGAGUUAGUAGUGCAACCUGCUCGGUCUGAUGAGUCCGACUUCGGACGAAACAGC [GACUUC] | 1.74 ± 0.038 | 1.91 ± 0.1

From the supplement of paper PMC6757056
